B1: PRPH (parent)
chain: RTFGPPPSLSPGAFSYSSSSRFSS
B2: ALDH8A1 (parent)
chain: WSSRSPQERSRVLNQVADLLEQSL

Variants of: B1
Assay: protein stability index of a GFP-peptide fusion (GPS, HEK-293T) (PSI 1-6); higher = more stable
Conditions: c terminus: a fixed tail appended
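Further: lentivirally expressed fusions sorted by FACS into six bins by GFP to DsRed ratio, PSI derived from sequencing read proportions per bin multiplied by bin number.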

Protein stability index: each site, then its substitutions
S15: Q 3.18, R 2.33, Y 2.56, A 3.27, F 2.43, H 2.85, D 3.49, G 3.64, M 2.65, P 3.03, E 3.22, L 2.62, I 2.95, K 3.29, N 3.37, V 2.74, C 2.33, T 3.48, W 2.31
S20: G 2.99, P 3.45, L 2.48, Y 2.74, T 2.94, R 3.41, D 3.23, C 2.33, Q 3.57, A 3.71, H 2.96, F 2.35, V 2.86, W 2.09, N 3.31, K 3.81, E 2.76, M 3.05, I 2.43
Y16: E 3.98, T 3.64, C 3.18, S 3.86, G 4.28, K 3.66, I 3.31, W 3.36, L 3.95, R 3.92, P 4.1, D 3.9, H 4.04, F 2.99, A 3.81, V 3.69, Q 3.62
A13: R 3.01, N 3.94, L 3.18, M 3.29, W 2.79, V 2.94, S 2.73, Q 3.62, T 3.45, P 3.21, Y 3.14
F22: E 4.03, A 3.4, W 2.83, G 4.16, C 3.82, I 3.81, H 3.55, M 3.73, D 3.94, T 4.17, N 3.44, Q 3.78, K 4.21, L 3.72, V 3.8, P 3.27, Y 3.22, S 4.18
S23: Y 2.66, L 2.93, M 2.88, I 2.52, N 3.36, P 3.59, V 2.85, C 3.02, D 2.9, T 3.23, K 3.48, Q 3.47, H 3.02, E 2.79, F 3.09, G 2.6, R 3.52, A 3.17
S19: C 2.66, M 2.26, E 3.55, H 2.81, V 3.63, G 3.46, Y 2.38, T 3.23, F 2.38, N 3.46, I 2.45, L 2.93, P 3.12, W 2.19, R 3.5, A 3.08, Q 2.66, K 3.7
F14: K 4.23, W 3.22, E 4.21, L 3.4, Q 4.01, N 4.03, M 3.28, H 3.7, R 4.11, G 3.3, Y 2.87, A 3.53, C 3.09, I 3.17, T 4.16, V 3.52
S18: F 2.45, D 2.94, C 3.5, E 3.57, K 3.9, N 3.22, Y 2.98, A 2.76, R 3.38, H 2.8, T 3.25, I 2.66, Q 3.5, G 3.38, L 2.59, M 2.75, P 2.93, W 2.77, V 3.24
R21: W 1.75, I 2.44, P 3.25, L 2.56, D 3.3, S 3.02, Y 2.08, E 3.22, A 2.46, M 2.8, K 3.5, C 3.19, V 3.1, T 3.18, Q 3.23, F 2.25, N 3.03, G 2.85, H 3.48
S17: K 3.04, E 3.59, H 2.54, T 3.19, V 2.75, I 2.55, R 2.99, D 3.06, C 2.85, N 3.71, Y 3.07, W 2.27, P 3.16, A 3.02, L 2.53, F 2.37, Q 3.1
S24: V 2.3, Y 2.46, I 3.01, K 3.89, C 2.83, F 1.96, D 3.19, M 2.55, E 3.38, Q 3.31, T 3.23, H 3.55, L 2.27, W 2.82, R 3.85, N 3.44

Variants of: B2
Assay: as above
Conditions: c terminus: a fixed tail appended

Protein stability index: each site, then its substitutions
R4: I 2.64, P 2.64, T 2.62, L 2.03, C 1.68, E 2.97, N 2.61, M 2.22, Q 3.04, S 2.44, A 2.18, K 2.49, F 1.82, D 2.79, W 2.68, V 2.02, Y 2.09, G 2.52, H 2.71
S2: I 1.78, W 1.92, Q 2.17, P 2.92, E 2.9, N 2.78, K 2.48, T 2.46, C 1.87, R 2.81, M 2.51, F 2.81, L 1.8, A 1.99, D 2.8, H 2.56, Y 2.65, V 2.76, G 2.5
W1: L 2.91, Y 2.68, G 3.44, C 2.78, D 3.69, R 3.52, N 3.61, I 2.69, E 3.54, S 3.69, H 3.56, A 3.21, F 2.67, T 3.39, P 3.02, K 3.18, M 3.06, V 3.11, Q 3.28
S3: V 2.78, H 2.52, T 2.64, R 2.28, P 2.54, Q 2.52, C 2.26, W 1.8, K 2.53, F 1.88, N 2.35, L 1.98, G 1.82, Y 2.25, I 2.2, D 2.77, E 3.5, A 1.98, M 2.27
Q7: G 2.7, N 2.81, C 2.24, A 2.38, P 2.9, E 2.76, F 1.77, L 1.91, M 2.23, H 2.31, I 2.42, D 2.96, K 2.61
P6: I 2.44, L 2.17, G 2.85, K 2.42, R 2.31, N 2.6, T 3.1, H 2.73, V 2.39, W 2.9, A 2.13, E 3.07, C 2.19, Q 2.85, Y 1.98, S 2.8, M 1.99, F 1.84, D 3.19
S5: K 2.52, F 1.99, D 2.85, Q 3.01, H 2.14, I 2.4, E 2.88, Y 1.6, M 2.54, W 1.59, R 2.87, P 2.57, C 2.56, N 2.43, L 2.74, A 2.62, T 2.57, G 2.05, V 2.81

— the supplement of paper PMC10567573
